# T1: B7-H3 of cynomolgus monkeys (Macaca fascicularis, UniProt A0A7N9CYV2)
# T1 sequence (A0A7N9CYV2 29-534): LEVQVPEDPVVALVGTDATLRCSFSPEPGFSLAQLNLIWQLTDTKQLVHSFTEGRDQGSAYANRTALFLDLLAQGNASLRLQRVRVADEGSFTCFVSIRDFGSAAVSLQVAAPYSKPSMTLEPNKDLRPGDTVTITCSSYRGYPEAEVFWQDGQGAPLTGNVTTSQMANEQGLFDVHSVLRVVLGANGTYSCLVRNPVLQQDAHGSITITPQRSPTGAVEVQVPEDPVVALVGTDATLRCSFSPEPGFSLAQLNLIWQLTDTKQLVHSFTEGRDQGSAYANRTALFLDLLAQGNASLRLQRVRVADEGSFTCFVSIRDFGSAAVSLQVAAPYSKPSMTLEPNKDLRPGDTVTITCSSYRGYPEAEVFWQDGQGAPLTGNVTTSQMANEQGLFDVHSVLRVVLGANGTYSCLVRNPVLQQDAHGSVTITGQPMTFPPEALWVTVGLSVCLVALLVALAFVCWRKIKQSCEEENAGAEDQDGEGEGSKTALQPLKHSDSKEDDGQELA
# B1: mAb-A: anti-B7-H3 antibody isolated from hybridoma cells; murine VL SEQ ID NO:15, VH SEQ ID NO:16 (antibody, V domains shown)
# VH: EVQQVESGGDLVKPGGSLKLSCAASGFTFSSYGMSWVRQTPDKRLEWVATINSGGSNTYYPDSLKGRFTISRDNAKNTLYLQMRSLKSEDTAMYYCARHDGGAMDYWGQGTSVTVSS
# VL: DIQMTQSPASLSVSVGETVTITCRASESIYSYLAWYQQKQGKSPQLLVYNTKTLPEGVPSRFSGSGSGTQFSLKINSLQPEDFGRYYCQHHYGTPPWTFGGGTNLEIK
# modifications: Synthetic: amino acid sequence of the VH Domain of anti-B7-H3 mAb-A; Synthetic: amino acid sequence of the VL Domain of the murine anti-B7-H3 antibody mAb-A
# Molecular target: T1, B7-H3 of cynomolgus monkeys
# Assay: Cross-reactivity of anti-B7-H3 antibody
# Type: binding
molecule,measurement,value
B1,cross-reactivity with B7-H3 of cynomolgus monkeys,cross-reactive
